The results in this text go back to patent publication US20250197451A1, “USE OF BIOACTIVE POLYPEPTIDE SYNTHESIZED ON BASIS OF KDM2B SEQUENCE IN NEURAL DIFFERENTIATION AND REGENERATION AND REPAIR OF MESENCHYMAL STEM CELLS” (CAPITAL MEDICAL UNIVERSITY SCHOOL OF STOMATOLOGY, priority 2021, published 2025).

B1: peptide 71 (peptide)
peptide: QPKFRYPFYYEMCWY
B2: peptide 74 (peptide)
peptide: VLERYVYCVTQRSHL
B3: peptide 98 (peptide)
peptide: LAVDYPKTPTGSPAT
B4: peptide 130 (peptide)
peptide: CIMRQCIAPVLPHTA
B5: peptide 69 (peptide)
peptide: IYEIEDRTRVQPKFR

The target of this assay is biotin-labelled EZH2 protein (UniProt Q15910). In words: KDM2B peptide array probed with biotin-EZH2 1 ug/ml, SA-HRP/ECL.
Chain of biotin-labelled EZH2 protein (Q15910 whole entry): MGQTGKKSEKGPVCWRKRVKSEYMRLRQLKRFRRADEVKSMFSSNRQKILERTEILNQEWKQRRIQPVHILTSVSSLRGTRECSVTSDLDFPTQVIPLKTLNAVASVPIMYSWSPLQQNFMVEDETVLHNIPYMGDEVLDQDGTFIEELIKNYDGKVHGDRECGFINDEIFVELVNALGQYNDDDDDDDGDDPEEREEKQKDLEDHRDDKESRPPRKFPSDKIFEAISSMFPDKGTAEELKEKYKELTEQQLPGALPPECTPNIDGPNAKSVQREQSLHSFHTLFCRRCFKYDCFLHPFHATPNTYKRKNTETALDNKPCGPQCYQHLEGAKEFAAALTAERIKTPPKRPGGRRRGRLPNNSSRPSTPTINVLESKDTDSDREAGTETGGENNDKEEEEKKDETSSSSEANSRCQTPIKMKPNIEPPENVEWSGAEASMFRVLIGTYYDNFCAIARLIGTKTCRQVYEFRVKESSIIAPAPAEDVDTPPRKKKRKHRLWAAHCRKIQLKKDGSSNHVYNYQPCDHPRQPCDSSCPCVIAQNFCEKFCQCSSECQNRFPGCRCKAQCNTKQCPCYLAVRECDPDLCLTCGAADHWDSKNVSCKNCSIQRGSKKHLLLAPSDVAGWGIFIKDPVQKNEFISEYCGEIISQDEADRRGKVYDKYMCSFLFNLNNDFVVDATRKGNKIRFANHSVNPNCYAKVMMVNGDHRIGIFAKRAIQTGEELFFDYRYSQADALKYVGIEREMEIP
Turning to B1, the Intensity (%) stood at 0.57%.
As to B2, the Intensity (%) worked out at 0.25%.
As to B3, the Intensity (%) worked out at 0.77%.
B4: the Intensity (%) amounted to 30.8%.
B5 displayed an Intensity (%) of 0.15%.
